The results in this text go back to patent US20190248889A1 (Genentech, published 2019).

The assay deals with T1, human LgR5 (human, UniProt O75473 22-907).
T1 construct: This one molecule is used for transfected 293 cells and for endogenous LgR5 in human cells and tissues; also called leucine-rich repeat-containing G protein-coupled receptor 5
T1 sequence: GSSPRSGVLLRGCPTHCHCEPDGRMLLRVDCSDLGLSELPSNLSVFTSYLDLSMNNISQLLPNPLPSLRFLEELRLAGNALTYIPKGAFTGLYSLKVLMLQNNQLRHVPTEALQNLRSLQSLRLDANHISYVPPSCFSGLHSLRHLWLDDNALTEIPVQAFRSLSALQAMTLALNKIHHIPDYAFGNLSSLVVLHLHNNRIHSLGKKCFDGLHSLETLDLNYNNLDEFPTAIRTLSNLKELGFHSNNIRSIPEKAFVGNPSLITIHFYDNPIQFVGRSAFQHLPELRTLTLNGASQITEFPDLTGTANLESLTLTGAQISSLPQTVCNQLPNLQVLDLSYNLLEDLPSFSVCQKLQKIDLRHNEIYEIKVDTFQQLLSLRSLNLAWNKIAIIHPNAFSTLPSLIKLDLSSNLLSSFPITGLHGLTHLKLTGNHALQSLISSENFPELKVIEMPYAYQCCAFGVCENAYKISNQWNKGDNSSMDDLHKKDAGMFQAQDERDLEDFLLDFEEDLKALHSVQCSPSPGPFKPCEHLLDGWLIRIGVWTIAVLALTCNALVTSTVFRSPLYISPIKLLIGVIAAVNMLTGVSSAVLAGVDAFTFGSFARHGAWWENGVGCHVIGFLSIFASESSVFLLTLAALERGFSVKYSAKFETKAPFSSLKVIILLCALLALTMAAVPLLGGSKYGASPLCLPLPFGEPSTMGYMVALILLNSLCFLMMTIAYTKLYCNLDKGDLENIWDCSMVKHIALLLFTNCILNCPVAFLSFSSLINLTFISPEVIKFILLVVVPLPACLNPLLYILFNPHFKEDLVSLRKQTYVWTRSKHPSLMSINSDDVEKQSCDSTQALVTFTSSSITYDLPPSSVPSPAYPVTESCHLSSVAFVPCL
Nature of the assay: IHC on SW403 colon cancer cell line. On the procedure:
Staining with antibody LGR5.26-1 was compared to staining with antibody LGR5.1-12 in CXF233 (human colon tumor model; Oncotest) xenograft tumors and in various colon cancer cell lines. Immunohistochemistry (IHC) for Lgr5 was performed on a Dako Universal Autostainer (Dako, Carpinteria, Calif.). Briefly, formalin-fixed, paraffin-embedded tumor tissue were deparaffinized and antigen unmasking was performed in a PT Module (Thermo Scientific, Kalamazoo, Mich.) with Target Retrieval pH 6 (Dako) at 99° C. for 20 minutes. Endogenous peroxidase was inhibited with treatment of 3% H202 in PBS for 4 minutes and endogenous biotin was blocked using the Avidin/Biotin blocking kit (Vector Labs, Burlingame, Calif.). Endogenous IgGs were blocked using 10% donkey serum in 3% BSA/PBS and primary antibody to Lgr5 (LGR5.1-12 or 26-1) was incubated at 4 μg/ml for 60 minutes at room temperature. […] Antibody binding was detected with Metal enhanced DAB (Pierce Rockford, Ill.) for 5 minutes at room temperature and sections were counterstained with Mayer's Hematoxylin (Rowley Biochemical, Danvers, Mass.).
Each cell line was also characterized by lgr5 gene expression using RNAseq data into the following levels of expression: none, very low, low, moderate, and high. In addition, LgR5 levels were determined in the cell lines by IHC, substantially as described above.

B1: antibody LGR5.26-1 (antibody, V domains shown)
VH: QSLEESGGDLVKPGGTLTLTCTASGIDFSYYSYMCWVRQAPGKGLEWIACIYAGTSGSTYYASWAKGRFTISKTSSTTVTLQMISLTAADTATYFCARSYYTFGVNGYAWDLWGPGTLVTVSS
VL: AFELTQTPSSVEAAVGGTVTIKCQASQSISVGLAWYQQKPGQPPKLLIYKASTLASGVPSRFKGSRSGTEFTLTISDLECADAATYYCQSYYDSSTTANVFGGGTEVVVKG
notes: also called αLgR5.26-1; antibody 26-1
Turning to B1, the binding result was “binds”.

B2: antibody LGR5.1-12 (antibody, V domains shown)
VH: QSLEESGGGLVQPEGSLTLTCTASGFSFSRTYWICWDRQAPGKGLEWIACIYAGGSDNTYYASWAKGRFTISKTSSTTVTLQVTSLTAADTATYFCARYYAGSSEYFNLWGPGTLVTVSS
VL: AYDMTQTPASVEVAVGGTVTIKCQASQSIGSNLAWYQQKPGQPPKLLIYGASNLASGVSSRFKGSGSGTEFTLTISDLECADAATYYCQTTYGSSSDGFFWTFGGGTEVVVKG
notes: also called αLgR5.1-12; antibody 1-12
As to B2, the binding result is recorded as “binds”.
